Residue numbers refer to the chain shown, from its start. Each block holds one molecule with its values, some of them ahead of it.
Experiments:
[1] = system: tumor growth in NSCLC and MCRC; settings: mouse models; cited from earlier work
[2] = cyclization; cited from earlier work
[3] = pH 7.8; cited from earlier work
[4] = target: directly coated FAP peptides mixture (cFAP); experiment: Direct ELISA, mixture of FAP-specific peptides directly coated; type: binding, human; settings: non-linear regression
Description: ELISA assays were performed with varying antibody concentrations to validate the binding of the exemplary antibodies of the present invention to FAP and to be able to determine their half maximal effective concentration (EC50). For the exemplary recombinant human NI-206.82C2, NI-206.59B4, NI-206.22F7, NI-206.27E8, NI-206.12G4 and NI-206.17A6 antibodies, 96-well microplates (Costar, Corning, USA) were coated with FAP, with a mixture of the 3 peptides or with BSA (Sigma-Aldrich, Buchs, Switzerland) diluted to a concentration of 5 μg/ml in carbonate ELISA coating buffer (15 mM Na2CO3, 35 mM NaHCO3, pH 9.4) for the direct ELISA. For the capture ELISA, the microplates were coated with mouse anti-His monoclonal antibody (Clontech) diluted to a concentration of 3 μg/ml in PBS, the plates were then blocked, FAP or BSA were diluted to a concentration of 2 μg/ml in PBS and added to the plates to be captured. The binding efficiency of the antibodies was then tested. The exemplary NI-206.82C2 antibody specifically and strongly binds to the captured FAP and less efficiently to the directly coated FAP. The exemplary NI-206.59B4 antibody specifically, strongly and similarly binds to the captured FAP and to the directly coated FAP.
The EC50 values were estimated by a non-linear regression using GraphPad Prism (San Diego, USA) software. […] The binding of NI-206.12G4 towards sFAP was not tested.

[5] = target: T1, active recombinant murine FAP (mouse, UniProt P97321 26-761); experiment: cell-based or functional assay
T1 sequence (looked up): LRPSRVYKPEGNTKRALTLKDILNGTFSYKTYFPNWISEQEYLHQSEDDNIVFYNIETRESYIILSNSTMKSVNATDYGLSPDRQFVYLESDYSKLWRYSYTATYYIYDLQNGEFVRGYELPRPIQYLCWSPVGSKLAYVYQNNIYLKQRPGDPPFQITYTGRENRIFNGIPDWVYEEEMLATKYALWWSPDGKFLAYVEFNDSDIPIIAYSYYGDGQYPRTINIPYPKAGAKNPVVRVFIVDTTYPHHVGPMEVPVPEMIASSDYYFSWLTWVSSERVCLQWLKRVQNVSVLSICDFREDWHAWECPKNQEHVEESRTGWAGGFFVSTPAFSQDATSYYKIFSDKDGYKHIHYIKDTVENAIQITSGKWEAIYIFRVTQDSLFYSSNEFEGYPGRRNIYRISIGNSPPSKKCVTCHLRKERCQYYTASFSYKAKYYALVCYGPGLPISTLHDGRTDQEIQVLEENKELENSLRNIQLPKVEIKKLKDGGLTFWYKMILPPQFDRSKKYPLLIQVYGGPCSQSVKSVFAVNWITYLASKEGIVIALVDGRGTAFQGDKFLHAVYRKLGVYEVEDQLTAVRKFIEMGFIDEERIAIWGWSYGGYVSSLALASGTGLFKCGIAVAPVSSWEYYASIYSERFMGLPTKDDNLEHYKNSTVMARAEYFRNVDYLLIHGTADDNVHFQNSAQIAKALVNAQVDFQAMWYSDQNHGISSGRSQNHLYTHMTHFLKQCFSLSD

[6] = target: T2, recombinant human Fibroblast Activation Protein (FAP) (human, UniProt Q12884 26-760); experiment: cell-based or functional assay
T2 sequence (looked up): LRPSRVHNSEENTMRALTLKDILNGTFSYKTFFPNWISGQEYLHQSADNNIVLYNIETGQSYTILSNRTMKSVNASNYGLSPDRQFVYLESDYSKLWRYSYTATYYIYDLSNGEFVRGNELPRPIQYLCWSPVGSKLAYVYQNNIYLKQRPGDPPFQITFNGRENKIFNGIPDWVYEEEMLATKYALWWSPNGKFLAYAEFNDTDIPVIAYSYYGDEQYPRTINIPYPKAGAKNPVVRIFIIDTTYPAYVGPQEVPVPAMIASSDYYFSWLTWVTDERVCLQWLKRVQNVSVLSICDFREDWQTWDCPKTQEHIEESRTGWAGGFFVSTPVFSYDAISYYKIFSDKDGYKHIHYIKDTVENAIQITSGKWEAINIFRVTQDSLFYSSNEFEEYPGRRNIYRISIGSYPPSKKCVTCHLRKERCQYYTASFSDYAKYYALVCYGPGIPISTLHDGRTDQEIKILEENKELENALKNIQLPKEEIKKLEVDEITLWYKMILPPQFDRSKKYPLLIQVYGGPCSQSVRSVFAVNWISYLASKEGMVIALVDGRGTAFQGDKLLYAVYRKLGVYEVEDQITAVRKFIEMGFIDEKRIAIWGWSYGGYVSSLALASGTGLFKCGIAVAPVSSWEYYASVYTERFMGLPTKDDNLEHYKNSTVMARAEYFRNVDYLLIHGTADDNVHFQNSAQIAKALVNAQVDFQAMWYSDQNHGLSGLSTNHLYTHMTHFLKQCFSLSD

[7] = target: T2, recombinant human Fibroblast Activation …; experiment: cell-based or functional assay; remark: listed apart in the source
[8] = target: T3, recombinant human Dipeptidyl Peptidase IV (DPPIV) (human, UniProt P27487 29-766, limits assumed); experiment: ELISA, recombinant human CD26 on the plate, NI-206.82C2 detected with HRP goat anti-human antibody, OD450
T3 construct: Bought; also called rhDPPIV; DPP4
T3 sequence (P27487 29-766 limits assumed): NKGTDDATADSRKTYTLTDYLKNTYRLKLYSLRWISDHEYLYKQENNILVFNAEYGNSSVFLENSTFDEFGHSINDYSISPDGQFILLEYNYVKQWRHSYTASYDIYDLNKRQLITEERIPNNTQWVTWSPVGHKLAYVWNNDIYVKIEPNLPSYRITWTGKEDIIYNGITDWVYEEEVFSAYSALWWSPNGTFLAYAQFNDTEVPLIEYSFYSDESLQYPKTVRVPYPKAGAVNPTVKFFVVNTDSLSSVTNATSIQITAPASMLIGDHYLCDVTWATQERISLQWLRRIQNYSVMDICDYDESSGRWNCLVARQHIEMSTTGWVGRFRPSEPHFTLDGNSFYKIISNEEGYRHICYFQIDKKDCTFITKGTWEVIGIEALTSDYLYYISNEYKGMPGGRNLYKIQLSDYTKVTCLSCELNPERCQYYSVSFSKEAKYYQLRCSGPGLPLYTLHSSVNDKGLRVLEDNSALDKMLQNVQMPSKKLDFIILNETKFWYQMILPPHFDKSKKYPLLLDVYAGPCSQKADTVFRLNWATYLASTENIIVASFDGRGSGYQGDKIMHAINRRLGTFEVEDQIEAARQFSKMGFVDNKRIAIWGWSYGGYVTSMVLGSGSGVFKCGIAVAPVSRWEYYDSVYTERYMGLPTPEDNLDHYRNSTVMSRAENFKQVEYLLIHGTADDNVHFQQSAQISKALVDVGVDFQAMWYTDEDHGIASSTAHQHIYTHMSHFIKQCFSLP

[9] = target: T2, recombinant human Fibroblast Activation …; experiment: ELISA, tagged rhFAP captured on the plate with an anti-tag antibody, HRP-labelled NI-206.82C2, TMB, OD 450 nm; axis unit as printed (pM) [continued) B]
Excerpt: Active recombinant human enzymes evaluated in this assay include: Fibroblast Activation Protein (FAP; Sino Biologicals, 10464-H07H), Dipeptidyl Peptidase IV (DPPIV, BPS Bioscience 80040), Dipeptidyl Peptidase 8 (DPP8, BPS Bioscience 80080), Dipeptidyl Peptidase 9 (DPP9, BPS Bioscience 80080), and Prolyl Oligopeptidase/Prolyl Endopeptidase (POP/PREP, BPS Bioscience 80105). Each recombinant peptidase was expressed with a purification tag, and attached to the 96 well ELISA plate using either a mouse anti-Histidine antibody (CloneTech), or a mouse anti-Glutathione S-transferase (GST, Sino Biologicals, 111213-MM02) tag antibody. […] H-Gly-Pro-AMC (ATT Bioquest, 13450) was used to validate the presence and activity of DPP4, DPP9, and DPP8. Z-Gly-Pro-AMC (BaChem, 11145) was used to evaluate the activity of FAP and POP/PREP. […] Following a washing step, bound antibody was detected using 3,3′,5,5′-Tetramethylbenzidine (TMB) substrate.

Molecule: N[C@@H](CCC(=O)O)C(=O)N1CCC[C@H]1B(O)O [PT-630]
tumor growth [1]: abrogate tumor growth
in-vivo stability [2]: poor in-vivo stability

Molecule: CC(C)[C@H](N)C(=O)N1CCC[C@H]1B(O)O [Talabostat, Val-boroPro]
stability of inhibitory activity in aqueous media [3]: rapidly loses inhibitory activity

B4: NI-206.12G4: recombinant human-derived monoclonal anti-FAP antibody, variable regions in FIG. 1 (antibody, V domains shown)
VH: EVQLVESGGGLVKPGGSLRLSCAASGFTFSDYYMSWIRQAPGKGLEWISYISSGSSYTNYADSVKGRFTISRDNAKKSVYLEVNGLTVEDTAVYYCARVRYGDREMATIGGFDFWGQGTLVTVSS
VL: SYELTQPPSVSVSPGQTARITCSGDALPKQYAYWYQQSPGQAPVLVIYKDSERPSGIPERFSGSSSGTTVTLTISGVQAEDEADYYCQSADSGGTSRIFGGGTKLTVL
EC50, binding to directly coated FAP peptides mixture (cFAP) [4]: did not show any binding

Results, then the molecule that gave them:

EC50, binding to directly coated FAP peptides mixture (cFAP) [4]: did not show any binding
B1: NI-206.59B4: recombinant human-derived monoclonal anti-FAP antibody, variable regions in FIG. 1 (antibody, V domains shown)
VH: QVQLVQSGAEVKKPGASVKVSCKTSGYTFTDYYIHWVRQAPGQGLEWMGWINPNRGGTNYAQKFQGRVTMTRDTSIATAYMELSRLRSDDTAVYYCATASLKIAAVGTFDCWGQGTLVTVSS
VL: SYELTQPPSVSVSPGQTARITCSGDALSKQYAFWFQQKPGQAPILVIYQDTKRPSGIPGRFSGSSSGTTVTLTISGAQADDEADYYCQSADSSGTYVFGTGTKVTVL

IC50 (read off the curve) [continued) B] [5]: ~60 nM
IC50, inhibition of rhFAP gelatinase activity (DQ-gelatin cleavage) [6]: 7.7 nM
IC50 (read off the curve) [7]: ~10 nM
binding result [8]: no binding (tested: 20 nM)
EC50 (read off the curve) [9]: 0.04 to 0.05 nM
B2: NI-206.82C2 (antibody, V domains shown)
VH: QVQLQQSGPGLVKPSQTLSLTCAISGDSVSSNSVTWNWIRQSPSRGLEWLGRTYYRSKWYNDYAVSVKGRITINPDTSKNQFYLQLKSVTPEDAAVYYCARDSSILYGDYWGQGTLVTVSS
VL: QAVLTQPSSLSASPGASASLTCTLPSGINVGTYRIFWFQQKPGSPPQYLLSYKSDSDNHQGSGVPSRFSGSKDASANAGILLISGLQSEDEADYYCMIWHSSAWVFGGGTKLTVL
notes: Labelled with HRP or Cy5 in some assays; also called HRP-labelled 82C2

EC50, binding to directly coated FAP peptides mixture (cFAP) [4]: did not show any binding
B3: NI-206.27E8: recombinant human-derived monoclonal anti-FAP antibody, variable regions in FIG. 1 (antibody, V domains shown)
VH: EVQLVESGGGLVEPGGSLRLSCAASGFTFSDAWMNWVRQAPGKGLEWVGRIKTKSDGGTTDYAAPVRGRFSISRDDSKNTLFLEMNSLKTEDTAIYYCFITVIVVSSESPLDHWGQGTLVTVSS
VL: B4 VL with A26E, S38K, S51R, E52Q, D91Y, G93I, G94N, S96Y, R97V

EC50, binding to directly coated FAP peptides mixture (cFAP) [4]: did not show any binding
B5: NI-206.17A6: recombinant human-derived monoclonal anti-FAP antibody, variable regions in FIG. 1 (antibody, V domains shown)
VH: QVQLQESGPGLVRSTETLSLTCLVSGDSINSHYWSWLRQSPGRGLEWIGYIYYTGPTNYNPSLKSRVSISLGTSKDQFSLKLSSVTAADTARYYCARNKVFWRGSDFYYYMDVWGKGTTVTVSS
VL: EIVLTQSPGTLSLSLGERATLSCRASQSLANNYLAWYQQKPGQAPRLLMYDASTRATGIPDRFSGSGSGTDFTLTISRLEPEDFAVYYCQQFVTSHHMYIFGQGTKVEIK

From patent US20170369592A1, “NOVEL ANTI-FIBROBLAST ACTIVATION PROTEIN (FAP) ANTIBODIES AND USES DERIVED THEREOF” (Mabimmune Diagnostics AG, priority 2015, published 2017)
